Reference: article PMC5993284, “Peptide inhibitors of the anaphase promoting-complex that cause sensitivity to microtubule poison” (PLoS ONE, 2018)
“Also recorded” adds a separate entry of the source.

Assays:
APC/C [1] = test: Biotinylated peptide pull-down of purified APC/C, Western blot; type: binding, Saccharomyces cerevisiae; settings: 20 μM biotinylated peptide, purified yeast APC/C, 1 h at 4 °C, streptavidin/Avidin beads, n = 3
Description: For APC/C purification, the APC/C which contain Cdc16-TAP-tag was isolated from 2 mL arrested yeast lysate by 120 μL IgG sepharose 6 Fast Flow beads (GE Healthcare Life Sciences) and incubate for 2 h at 4 °C on a rotating wheel. Beads were collected washed with 5 mL of APC/C wash buffer (200 mM Hepes pH8.0, 150 mM NaCl, 10% glycerol). Beads were resuspended in 150 μL of APC/C wash buffer contain 17.6 units of AcTEV protease (Invitrogen, Carlsbad, CA) at 4°C for 3 h with pipetting every 20 minutes. The purified APC/C was collected in the flow-through.
For APC/C binding assays, 20 μM biotinylated peptides or 20 μM peptides only as a negative control were incubated with purified APC/C and 100 μL APC/C wash buffer which contains phosphatase inhibitors (200 mM Hepes pH 8.0, 150 mM NaCl, 10% glycerol, 10 mM NaF, 1 mM NaVO4, 5 mM Na-pyrophosphate, 10 mM 2-glycerol phosphate) for 1 h at 4 °C. The mixtures were applied to 120 μL streptavidin beads (Dynabeads MyOne Streptavidin T1, Invitrogen) for 30 min at 4 °C with gentle pipetting every 10 min. Beads were washed with 1 mL of PBST buffer (Phosphate buffer saline and 0.1% Tween 20) three times SDS-PAGE protein sample was added directly. For APC/C binding competition experiments, the biotinylated peptide and 10-fold excess non-biotinylated peptides were added to purified APC/C at same time.
Free D-biotin in 10% DMSO was used for the control binding assays. For pre-coating APC/C with biotin, a modified APC/C purification was performed. 2 mL yeast lysate was incubated with 120 μL IgG Sepharose beads and additional 20.4 μM free biotin or non-biotin solvent as a positive control was added and samples were incubated for 2 h at 4 °C on a rotating wheel. Purified pre-coated APC/C was then removed from the IgG Sepharose following the standard purification procedure. 20 μM biotinylated peptides or 20 μM peptides as a negative control were incubated with pre-coated APC/C and 100 μL APC/C wash buffer which contain phosphatase inhibitors for 1 h at 4 °C. In addition, 20 μM biotinylated peptide was added and incubated with pre-coated APC/C in a non-biotin containing solvent as positive control. Pre-coated APC/C binding procedures were same as above. For pre-coating streptavidin beads with biotin, streptavidin beads were washed in the presence of 10.2 nmol/mL D-biotin in PBST buffer or non-biotin solvent as a positive control before use. Pre-coated streptavidin beads were incubated with purified APC/C-peptide complexes with an extra […] biotin for 30 minutes with gentle pipetting every 10 min at 4 °C.
Proteins were separated in SDS-PAGE gels and then were transferred to PVDF membrane. Blocking was performed by incubating samples in 20 mL PBST with 5% milk at 4 °C. Rabbit anti-tap (Thermo, CAB1001) was used as primary antibodies at a 1:1000 dilution and incubated for 2 hours at RT. Anti-rabbit HRP (Jackson, USA) was then used as secondary antibody at 1:5000 dilution and incubate for 1 hr at RT. Chemiluminescence signals were detected using an ImageQuant LAS 4000 (GE Healthcare Bio-Sciences, USA). For cell cycle timing Western blots anti-MYC and anti-Actin antibodies were employed (ABCAM, UK).

APC/C^Cdh1 = APC/C^Cdh1 enzyme assay (ubiquitination of 35S-Pds1); type: biochemical, Saccharomyces cerevisiae; settings: 220 μM peptide; 35S-Pds1 substrate; time course 0-60 minutes; vs buffer; n = 3
Description: Full-length, radio-labeled protein purifications were preformed as previously described. ^35S-Pds1 was prepared in a 500 μL IVT/T (In Vitro Transcription/Translation) reaction (Promega, USA), which contained 400 μL rabbit reticulocyte lysate, 20 μL of L-^35S-methionine (PerkinElmer, USA), 10 μg of plasmid DNA, and the remaining volume as nuclease-free ddH2O as recommended by the manufacturer. The reaction mixture was incubated for 2 hours at room temperature and gently mixed every 30 minutes. The reaction was added to pre-equilibrated IgG Sepharose beads (GE Healthcare, USA) in Bio-spin disposable chromatography columns (Bio-Rad, USA) for binding for 2 hours at room temperature. To ensure efficient binding, the beads were re-suspended several times every 30 minutes. After binding, the beads were washed with 5 mL wash buffer, containing 200 mM 4-(2-hydroxyethyl)-1-piperazineethanesulfonic acid (HEPES) at pH 8.0, 150 mM NaCl, 10% (v/v) glycerol, and 1 mM dithiothreitol (DTT). The ^35S-Pds1 was cleaved from the beads using TEV (Tobacco Etch Virus) protease in 1x TEV buffer (Invitrogen, USA) for 2 hours at room temperature, and the mixture was re-suspended several times every 30 minutes to promote efficient cleavage. The elution was collected and concentrated by employing an Amicon Ultra filter column (Millipore, Ireland). The concentrated ^35S-Pds1 was collected in a new tube, and stored at -20 °C.
(§1) The production of Cdc20 or Cdh1 was prepared by IVT/T reactions, where 16 μL of rabbit reticulocyte lysate, 20 μM L-methionine, 0.4 μg of plasmid DNA, and a volume of nuclease-free ddH2O for a total volume of 20 μL. This freshly synthesized Cdc20 or Cdh1 protein was used directly in all APC/C assays after a 1-hour synthesis reaction at room temperature. The APC/C was purified for enzyme assays from 1 mL of TAP-tagged Cdc16 yeast extract (SCSY51) where extract was mixed with 50 μL 50:50 slurry magnetic beads (Invitrogen, Norway) for 2 hours at 4 °C. After incubation, the beads were washed with 3 mL APC/C wash buffer (200 mM of HEPES, 150 mM of NaCl and 10% (v/v) of glycerol). APC/C bound to IgG magnetic beads was used directly in the enzyme assays.
APC/C assays were performed by adding the reaction contents in following order: 4.3 μL of QAH buffer, 20 μL of rabbit reticulocyte lysate containing Cdc20 or Cdh1 with or without an additional volume of recombinant checkpoint protein(s) or inhibitor peptides, 2.4 μL ubiquitin aldehyde (Boston Biochem, USA), APC/C, 16 μL pre-charged E1/E2/ATP/ubiquitin mix, and 13.3 μL of ^35S-Pds1 with QAH buffer (20 mM HEPES at pH 8.0, 100 mM NaCl, and 1 mM MgCl2). […]

APC/C^Cdc20 = target: T1, APC/C^Cdc20 (Saccharomyces cerevisiae, UniProt P16522+P53886); test: biochemical; type: biochemical; settings: 220 μM peptide; 35S-Pds1 substrate; time course 0-60 minutes; vs buffer only; n = 3
T1 construct: constructed within full-length Cdc20 by site-directed mutagenesis for analysis in vitro in the APC/C^Cdc20 assay; The APC/C was purified for enzyme assays from 1 mL of TAP-tagged Cdc16 yeast extract (SCSY51); made in house; host or cells: Cdc20: in vitro transcription/translation in rabbit reticulocyte lysate, used unpurified; APC/C: S. cerevisiae strain SCSY51 (Cdc16-TAP) extract, captured on IgG magnetic beads
Summary of the method: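 Bead-bound TAP-Cdc16 yeast APC/C was mixed with IVT-made Cdc20 or Cdh1, pre-incubated 1 h at rt with checkpoint proteins or inhibitor peptides, plus pre-charged E1/E2/ATP/ubiquitin and ^35S-Pds1 in 20 mM HEPES pH 8.0, 100 mM NaCl, 1 mM MgCl2. Time points were stopped in SDS buffer and resolved by SDS-PAGE.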

APC/C [2] = test: APC/C activity promoted by mutant Cdc20 alleles in the presence of Mad2 (Pds1 remaining); type: biochemical, Saccharomyces cerevisiae; settings: 5.0 μM Mad2, n = 3
Description: as §1
APC/C assays were performed by adding the reaction contents in following order: 4.3 μL of QAH buffer, 20 μL of rabbit reticulocyte lysate containing Cdc20 or Cdh1 with or without an additional volume of recombinant checkpoint protein(s) or inhibitor peptides, 2.4 μL ubiquitin aldehyde (Boston Biochem, USA), APC/C, 16 μL pre-charged E1/E2/ATP/ubiquitin mix, and 13.3 μL of ^35S-Pds1 with QAH buffer (20 mM HEPES at pH 8.0, 100 mM NaCl, and 1 mM MgCl2). The E1/E2/ATP/ubiquitin mix were pre-charged by mixing 1 μL of E1 (Boston Biochem, USA), 1 μL of E2 (Boston Biochem, USA), 14.4 μL of ATP, 14.4 μL of […] (Boston Biochem, USA), and 17.2 μL of QAH buffer and incubated for 15 minutes at room temperature. Approximately 15 μL of samples were taken out at each time point, and the reaction was stopped by the addition of 2x protein sample buffer (125 mM Tris-HCl pH 6.8, 4% SDS, 20% glycerol, and 0.002% bromophenol blue, with 10% (final v/v) 2-mercaptoethanol added in fresh directly before use).
For inhibitor titration and time-course experiments, recombinant Bub3, Mad2, Mad3, and the Mad3-Bub3 complex were expressed and purified as previously described. Inhibitory peptides were synthesized by standard procedures and purified to 99% purity by HPLC (Kelowna International Scientific Inc., Taiwan). For inhibition of APC/C the co-factor Cdc20 or Cdh1 was made fresh by IVT/T, and pure recombinant checkpoint proteins or inhibitor peptides were added to the IVT/T mixture and incubated for an additional hour at room temperature. In titrations, a dilution series of the checkpoint protein(s) were made before incubation with the Cdc20 co-factor. […]
Our first goal was to measure the ability of the mutant alleles to promote APC/C activity in vitro. To ensure any observed change in APC/C activity reflected a change in function, and not a change in the amount of Cdc20 co-factor protein produced by IVT/T, the amounts of Cdc20 protein produced by IVT/T was measured, and no significant difference was observed (S4 Table). […]

Molecule	binding to APC/C (in words) (APC/C [1])	inhibition of APC/C^Cdh1 activity (in words) (APC/C^Cdh1)	inhibition of APC/C^Cdc20 activity (in words) (APC/C^Cdc20)	ability of mutant Cdc20 to promote APC/C activity in the presence of Mad2 (in words) (APC/C [2])	ability of mutant Cdc20 to promote APC/C activity in the presence of Mad2 (in words) (APC/C [2]; listed as Cdc20-106)
hp31: 39 amino acid residue human peptide derived from human p31^comet amino acid residues 219–258 (RNCGEDWFRPKLNYRVPSRGHKLTVTLSCGRPSIRTTAWE; UniProt Q15013 219-258, looked up, fragment)	bound to budding yeast APC/C directly; also recorded: can pull-down budding yeast APC/C at 20 μM peptide	inhibited both budding yeast APC/C^Cdc20 (Fig 13B) and APC/C^Cdh1; also recorded: inhibits yeast APC/C^Cdh1	inhibited both budding yeast APC/C^Cdc20; also recorded: inhibits yeast APC/C^Cdc20		
Cdc20-106 (P209Q): spindle checkpoint by-pass mutant allele of Cdc20, P209Q (protein) MPESSRDKGNAAISGNRSVLSIASPTKLNILSSDWSRNQGKVSKNSLKRSSSLNIRNSKRPSLQASANSIYSRPKITIGAPPLIRRDSSFFKDEFDAKKDKATFSAYSSRSYPTIGSESVVSQTSLSQPTTSREVDEQFTVAADRYIPILQGASQNKVDPETLHEALPPPNASPISHLRAQTKIVFKQNVAEACGLDMNKRILQYMPEQPKCSSLRQKSYIMKKRTHYSYQQEQKIPDLIKLRKINTNPERILDAPGFQDDFYLNLLSWSKKNVLAIALDTALYLWNATTGDVSLLTDFENTTICSVTWSDDDCHISIGKEDGNTEIWDVETMSLIRTMRSGLGVRIGSLSWLDTLIATGSRSGEIQINDVRIKQHIVSTWAEHTGEVCGLSYKSDGLQLASGGNDNTVMIWDTRTSLPQFSKKTHTAAVKALSWCPYSPNILASGGGQTDKHIHFWNSITGARVGSINTGSQVSSLHWGQSHTSTNGGMMNKEIVATGGNPENAISVYNYETKFKVAEVVHAHEARICCSQLSPDGTTLATVGGDENLKFYKIFDPRCTGRSREDGLMDGMLGLIGKEGCRTNDKENRSKNSSEIHTRRPSSTSQYLIR				consistently displayed APC activity in the presence of Mad2	promote APC/C activity at the same level as control reactions even in the presence of 5.0 μM Mad2
